{"source": "paper PMC8281565", "target": "histone H3 (UniProt P68431)", "assay": "co-immunoprecipitation (IP with SV40 antibody, WB, densitometry)", "details": "nuclear extracts from transfected HCT116 cells; three different experiments; parent: est. 1.0; read off a plot"}
{"substance": "SV40 Large T antigen wild type (from UniProt P03070) S106A; S111A; S112G", "values": [{"measurement": "ratio to parent", "value": 0.61}]}
